Experimental findings from patent US10766960 (dated 2020) are described below.

Where a chain is given by its changes, count along the chain named. Like-named read-outs stand apart in the source and are kept apart here.

What all share (test): SPR
(SPR reads the build-up and loss of mass on a sensor chip optically.)

Assay [1] addresses T1, FcgRIIb (human, UniProt P31994).
T1 chain: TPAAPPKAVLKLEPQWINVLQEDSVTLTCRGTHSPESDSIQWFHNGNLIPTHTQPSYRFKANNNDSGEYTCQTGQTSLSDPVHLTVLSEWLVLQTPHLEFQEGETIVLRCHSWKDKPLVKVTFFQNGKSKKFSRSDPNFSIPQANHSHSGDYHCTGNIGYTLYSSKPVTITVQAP

The target of assay [2] is T2, FcgRIIa H (human, UniProt P12318).
T2 chain: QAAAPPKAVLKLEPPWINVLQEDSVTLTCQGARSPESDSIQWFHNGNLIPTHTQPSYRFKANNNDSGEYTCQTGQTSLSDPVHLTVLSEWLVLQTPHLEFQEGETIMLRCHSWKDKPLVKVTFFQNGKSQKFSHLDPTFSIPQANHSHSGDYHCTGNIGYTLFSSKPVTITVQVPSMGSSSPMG

Assay [3] addresses T3, FcgRIIa R (human, UniProt P12318).
T3 chain: T2 chain with H134R

In assay [4] the target is T4, FcgRIIIa V (human, UniProt P08637).
T4 sequence (P08637 17-208 F176V): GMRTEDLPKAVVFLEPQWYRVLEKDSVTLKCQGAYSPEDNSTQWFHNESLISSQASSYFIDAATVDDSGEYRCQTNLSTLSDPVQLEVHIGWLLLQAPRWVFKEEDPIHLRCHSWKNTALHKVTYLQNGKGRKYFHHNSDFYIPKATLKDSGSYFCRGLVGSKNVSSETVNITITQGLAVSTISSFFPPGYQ
Assay [5] has as its target T5, FcgRIIIa F (human, UniProt P08637).
Assay [6] addresses T6, FcgRIa (human, UniProt P12314).
T6 chain: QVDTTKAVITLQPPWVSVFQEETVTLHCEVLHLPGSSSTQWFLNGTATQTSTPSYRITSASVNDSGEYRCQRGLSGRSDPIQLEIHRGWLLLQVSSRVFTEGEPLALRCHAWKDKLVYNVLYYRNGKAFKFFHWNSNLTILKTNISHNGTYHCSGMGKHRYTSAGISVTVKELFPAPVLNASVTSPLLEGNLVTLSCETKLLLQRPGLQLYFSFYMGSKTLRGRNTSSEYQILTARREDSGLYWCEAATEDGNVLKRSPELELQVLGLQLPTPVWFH

Assay [7] addresses T3, FcgRIIa R.
For assay [8], the target named is T2, FcgRIIa H.
In assay [9] the target is T5, FcgRIIIa F. The source holds these as a separate data set.
For assay [10], the target named is T6, FcgRIa.
Assay [11] addresses T4, FcgRIIIa V. The source holds these as a separate data set.
Assay [12] has as its target T1, FcgRIIb.

T5 sequence (P08637 17-208): as the sequence (P08637 17-208 F176V) above, with V160F counted along it

B1: GpH7-Kn045/GpH7-Hl048/GpL16-k0 (antibody)
chain 1: QVQLVQSGAEVKKPGASVTVSCKASGYTFTDYEMHWIRQPPGEGLEWIGAIDPKTGDTAYSESFQDRVTLTADKSTSTAYMELSSLTSEDTAVYYCTRFYSYTYWGQGTLVTVSSASTKGPSVFPLAPSSKSTSGGTAALGCLVKDYFPEPVTVSWNSGALTSGVHTFPAVLQSSGLYSLSSVVTVPSSSLGTQTYICNVNHKPSNTKVDKKVEPKSCDKTHTCPPCPAPEYYAGPSVFLFPPKPKDTLMISRTPEVTCVVVDVSDEDPEVKFNWYVDGVEVHNAKTKPREEQYNATYRVVSVLTVLHQDWLNGKEYKCKVSNKALPAPIEKTISKAKGQPREPQVCTLPPSRDELTKNQVSLWCLVKGFYPSDIAVEWESNGQPENNYKTTPPVLDSDGSFFLYSKLTVDKSRWQQGNVFSCSVMHEALHNHYTQKSLSLSP
chain 2: QVQLVQSGAEVKKPGASVTVSCKASGYTFTDYEMHWIRQPPGEGLEWIGAIDPKTGDTAYSESFQDRVTLTADKSTSTAYMELSSLTSEDTAVYYCTRFYSYTYWGQGTLVTVSSASTKGPSVFPLAPSSKSTSGGTAALGCLVKDYFPEPVTVSWNSGALTSGVHTFPAVLQSSGLYSLSSVVTVPSSSLGTQTYICNVNHKPSNTKVDKKVEPKSCDKTHTCPPCPAPELLAGPDVFLFPPKPKDTLMISRTPEVTCVVVDVSHEDPEVKFNWYVDGVEVHNAKTKPREEQYNSTYRVVSVLTVLHQDWLNGKEYKCKVSNKALPKPEEKTISKAKGQPREPQVYTLPPSRCELTKNQVSLSCAVKGFYPSDIAVEWESNGQPENNYKTTPPVLDSDGSFFLVSKLTVDKSRWQQGNVFSCSVMHEALHNHYTQKSLSLSP
chain 3: DIVMTQSPLSLPVTPGEPASISCQASESLVHSNRNTYLHWYLQKPGQSPQLLIYKVSNRFSGVPDRFSGSGSGTDFTLKISRVEAEDVGVYYCSQNTHVPPTFGQGTKVEIERTVAAPSVFIFPPSDEQLKSGTASVVCLLNNFYPREAKVQWKVDNALQSGNSQESVTEQDSKDSTYSLSSTLTLSKADYEKHKVYACEVTHQGLSSPVTKSFNRGEC
The Kd is a measure of binding affinity in units of concentration. Higher therefore signals a looser complex. B1: the Kd came out at 110 nM with FcgRIIb [1]; 11 nM with FcgRIIa H [2]; 4.8 nM with FcgRIIa R [3]; 1.3 nM with FcgRIIIa V [4]; 3.7 nM with FcgRIIIa F [5]; 0.019 nM with FcgRIa [6].

B2: GpH7-Kn037/GpH7-Hl036/GpL16-k0 (antibody)
chain 1: B1 chain 2 with K328A, Y347C, C354D, S364W, A366L, V405Y
chain 2: B1 chain 2 with K328A
chain 3: B1 chain 3
B2: the Kd with FcgRIIb [1] amounted to 230 nM; with FcgRIIa H [2], 27 nM; with FcgRIIa R [3], 17 nM; with FcgRIIIa V [4], 2.6 nM; in the assay with FcgRIIIa F [5], 9.7 nM; with FcgRIa [6], 0.012 nM.

B3: GpH7-Kn033/GpH7-Hl033/GpL16-k0 (antibody)
chain 1: not shown
chain 2: not shown
chain 3: B1 chain 3
Consider B3, for which the Kd is 3600 nM with FcgRIIb [1]; 590 nM with FcgRIIa H [2]; 740 nM in the assay with FcgRIIa R [3]; 220 nM in the assay with FcgRIIIa V [4]; 1600 nM in the assay with FcgRIIIa F [5]; 0.069 nM with FcgRIa [6].

B4: GpH7-Kn056/GpH7-Hl055/GpL16-k0 (antibody)
chain 1: B1 chain 1 with Q293L
chain 2: B1 chain 2 with Q293L, K328M
chain 3: B1 chain 3
Turning to B4, the dissociation constant (Kd) was found to be 260 nM with FcgRIIb [1]; 30 nM with FcgRIIa H [2]; 17 nM in the assay with FcgRIIa R [3]; 0.66 nM in the assay with FcgRIIIa V [4]; 1.4 nM with FcgRIIIa F [5]; 0.023 nM with FcgRIa [6].

B5: GpH7-Kn045/GpH7-Hl055/GpL16-k0 (antibody)
chain 1: B1 chain 1
chain 2: B1 chain 2 with Q293L, K328M
chain 3: B1 chain 3
As to B5, the dissociation constant Kd in the assay with FcgRIIb [1] worked out at 240 nM; with FcgRIIa H [2], 29 nM; in the assay with FcgRIIa R [3], 13 nM; with FcgRIIIa V [4], 0.72 nM; with FcgRIIIa F [5], 1.6 nM; with FcgRIa [6] it was 0.019 nM.

B6: GpH7-Kn032/GpH7-Hl032/GpL16-k0 (antibody)
chain 1: B1 chain 2 with A234G, K328L, Y347C, C354D, S364W, A366L, V405Y
chain 2: B1 chain 2 with A234G, K328L
chain 3: B1 chain 3
In the case of B6, the Kd with FcgRIIb [1] worked out at 440 nM; with FcgRIIa H [2], 470 nM; in the assay with FcgRIIa R [3], 250 nM; with FcgRIIIa V [4], 1.2 nM; in the assay with FcgRIIIa F [5], 4.1 nM; with FcgRIa [6] it was 0.0028 nM.

B7: H240-Kn120/H240-Hl085/L73-k0 (antibody)
chain 1: QDQLVQSGAEVKKPGASVKVSCKASGFNIKDTYIQWVRQAPGQGLEWMGRIDPLRKQTKYREKFEGRVTITADTSTNTAYMELSSLRSEDTAVYYCVRSGREFDYWGQGTLVTVSSASTKGPSVFPLAPSSKSTSGGTAALGCLVKDYFPEPVTVSWNSGALTSGVHTFPAVLQSSGLYSLSSVVTVPSSSLGTQTYICNVNHKPSNTKVDKKVEPKSCDKTHTCPPCPAPEYYWGPMVFLFPPKPKDTLMISRTPEVTCVVVDVSDEDPEVKFNWYVDGVEVHNAKTKPREEQYNATYRVVSVLTVLHQDWLNGKEYKCKVSNKDLPAPIEKTISKAKGQPREPQVCTLPPSRDELTKNQVSLWCLVKGFYPSDIAVEWESNGQPENNYKTTPPVLDSDGSFFLYSKLTVDKSRWQQGNVFSCSVMHEALHNHYTQKSLSLSP
chain 2: QDQLVQSGAEVKKPGASVKVSCKASGFNIKDTYIQWVRQAPGQGLEWMGRIDPLRKQTKYREKFEGRVTITADTSTNTAYMELSSLRSEDTAVYYCVRSGREFDYWGQGTLVTVSSASTKGPSVFPLAPSSKSTSGGTAALGCLVKDYFPEPVTVSWNSGALTSGVHTFPAVLQSSGLYSLSSVVTVPSSSLGTQTYICNVNHKPSNTKVDKKVEPKSCDKTHTCPPCPAPELLVGPSVFLFPPKPKDTLMISRTPEVTCVVVDVSHEEPEVKFNWYVDGVEVHNAKTKPREEQYNSTYRVVSVLTVLHQDWLNGKEYKCKVSNDALPKPIEETISKAKGQPREPQVYTLPPSRCELTKNQVSLSCAVKGFYPSDIAVEWESNGQPENNYKTTPPVLDSDGSFFLVSKLTVDKSRWQQGNVFSCSVMHEALHNHYTQKSLSLSP
chain 3: DIQMTQSPSSLSASVGDRVTITCRASQDIHKYIAWYQQKPGQAPRLLIQYTSTLQPGVPSRFSGSGSGTDYTFTISSLQPEDIATYYCLQYEQLRTFGGGTKVEIKRTVAAPSVFIFPPSDEQLKSGTASVVCLLNNFYPREAKVQWKVDNALQSGNSQESVTEQDSKDSTYSLSSTLTLSKADYEKHKVYACEVTHQGLSSPVTKSFNRGEC
Turning to B7, the Kd with FcgRIIa R [7] was determined as 19 nM; with FcgRIIa H [8] it was 46 nM; with FcgRIIIa F [9] it was 23 nM; with FcgRIa [10], 87 nM; in the assay with FcgRIIIa V [11] it was 6.2 nM; with FcgRIIb [12] it was 390 nM.

B8: H240-Kn120/H240-Hl086/L73-k0 (antibody)
chain 1: B7 chain 1
chain 2: B7 chain 2 with V235I
chain 3: B7 chain 3
On to B8, for which the Kd is 22 nM with FcgRIIa R [7]; 53 nM with FcgRIIa H [8]; 33 nM with FcgRIIIa F [9]; 1.4 nM with FcgRIa [10]; 14 nM with FcgRIIIa V [11]; 480 nM with FcgRIIb [12].

B9: H240-Kn120/H240-Hl089/L73-k0 (antibody)
chain 1: B7 chain 1
chain 2: B7 chain 2 with V235T
chain 3: B7 chain 3
As to B9, the Kd came out at 14 nM with FcgRIIa R [7]; 41 nM with FcgRIIa H [8]; 12 nM with FcgRIIIa F [9]; 0.18 nM in the assay with FcgRIa [10]; 5.4 nM in the assay with FcgRIIIa V [11]; 190 nM in the assay with FcgRIIb [12].

B10: H240-Kn180/H240-Hl068/L73-k0 (antibody)
chain 1: B7 chain 1 with E293R
chain 2: B7 chain 2 with V235G
chain 3: B7 chain 3
On to B10, for which the Kd with FcgRIIa R [7] came to 21 nM; in the assay with FcgRIIa H [8], 33 nM; with FcgRIIIa F [9] it was 3.1 nM; with FcgRIa [10] it was 0.3 nM; with FcgRIIIa V [11], 0.67 nM; with FcgRIIb [12] it was 240 nM.
